This is an account of results in the RNAGym collection of RNA variant scans (doi:10.7554/elife.80360).

B1: HDV Ribozyme (parent)
chain: GGCCGGCAUGGUCCCAGCCUCCUCGCUGGCGCCGGCUGGGCAACAUUCCGAGGGGACCGUCCCCUCGGUAAUGGCGAAUGGGACCCA

In this data set the parent is B1. The experiment in a line: self-cleavage, relative activity (ratio to wild type); higher = more cleavage; co-transcriptional.
Take A8C C48G: the self-cleavage was found to be 0.175.
For C7G G68A, the self-cleavage is 0.0594.
In the case of C7G U46C, the self-cleavage came out at 0.
Under A8C G82C stands 0.0923.
Under C7U A56G stands 0.997; under C7U A56C, 0.806; under C7U G17C, 0.
Under C7U G17U stands 0.259; under C7U C13A, 0.124; under U9A G54A, 0.943.
Regarding A8C C62U, the self-cleavage came to 0.918.
Under A8U U37G stands 0.222; under A8G C86U, 1.11.
Under U9A C63G stands 0.502; under U9A C62U, 1.06; under C7G U23C, 0.
As for A8G G10A, the self-cleavage came out at 0.369.
The result for C7G G25A reads 0.104; that for C7U C48G, 0.831.
The result for C7G C63U reads 0.674; that for A8C A42C, 0.201.
Under A8C A42U stands 0.133; under A8C A43U, 0.289.
Take U9A A83C: the self-cleavage stood at 0.731.
Take A8U G80U: the self-cleavage is 0.0715.
On to A8U G80C, for which the self-cleavage came out at 0.128.
The result for C7G G59U reads 0.237; that for A8C A78C, 0.302; that for A8C A83C, 0.317.
The result for A8C A83U reads 0.237; that for A8G C36U, 0.727; that for C7G G76C, 0.151.
Turning to C7U C41U, the self-cleavage was 0.802.
Under U9C A70U stands 0.831; under C7U G50U, 0.864.
Under U9C A78C stands 0.128; under A8G U20G, 0.151.
Take A8G U20A: the self-cleavage was 0.151.
Under A8C C85U stands 0.886.
Under U9A G35U stands 0.264; under A8C A87U, 0.847.
Consider A8C A87G, for which the self-cleavage turned out to be 0.674.
The result for C7U G59U reads 0.812; that for A8C C21U, 0.0594; that for U9A U12A, 0.361.
The result for A8U G40A reads 0.892.
As for A8U C33G, the self-cleavage was 0.0536.
Regarding A8U C33U, the self-cleavage worked out at 0.453.
The result for A8C C36U reads 0.712.
Under A8G U9G stands 0.831.
Under A8G G73U stands 0.148; under U9A U79A, 0.923.
Consider U9A G76U, for which the self-cleavage was 1.02.
As for C7G U47C, the self-cleavage stood at 0.293.
As to A8C A71G, the self-cleavage was determined as 0.772.
For the variant U9C A77U, the self-cleavage turned out to be 0.867.
On to C7U A77U, for which the self-cleavage worked out at 0.151.
The result for C7U A77C reads 0.196; that for A8G G11U, 0.0739.
As to A8G G11C, the self-cleavage worked out at 0.0437.
Under C7G G52U stands 0.196.
The result for A8U G31U reads 0.0475.
Take A8C C30U: the self-cleavage worked out at 0.415.
The result for A8C C30A reads 0.0462; that for C7U C85A, 0.665; that for A8U C62A, 0.956.
The result for A8U C62U reads 0.989; that for A8U C62G, 0.287.
Under A8G G59C stands 0.858; under A8G G59U, 0.914.
In the case of A8U C22A, the self-cleavage amounted to 0.0923.
The result for A8U C32U reads 0.554; that for A8C C18A, 0.0415; that for C7U A70C, 0.923.
Under C7U A70G stands 0.831; under A8G A87C, 1.18; under A8G A87G, 0.942.
The result for A8G U79C reads 0.256; that for A8G U79A, 0.692; that for C7G U9C, 0.
Consider A8U G67A, for which the self-cleavage was 0.855.
Under A8U G67U stands 0.898; under A8U A16G, 0.684; under A8C C22A, 0.249.
For the variant C7U C61U, the self-cleavage was 0.831.
For the variant C7U A45G, the self-cleavage was found to be 0.72.
The result for A8G C85G reads 0.895.
Consider U9A G67C, for which the self-cleavage came to 0.831.
The result for A8G C49A reads 0.939; that for C7U C19A, 0.157.
Regarding C7G U27C, the self-cleavage amounted to 0.151.
The result for A8G U46G reads 0.623; that for A8G U46A, 0.723.
In the case of C7U C15G, the self-cleavage was 0.536.
Under U9A G28A stands 0.138; under A8U C13G, 0.
The result for A8U C13A reads 0.
The result for A8G A56C reads 0.867.
Turning to U9A, the self-cleavage was found to be 1.04.
The result for U9C reads 1.04; that for C7U C33G, 0.0536.
The result for C7U C33U reads 0.672; that for A8U C41U, 0.594.
The result for U9C C14U reads 1.11; that for A8U C66A, 1.06.
Consider A8G U72G, for which the self-cleavage was 0.536.
Under C7G G40A stands 0.0536; under C7G G40U, 0.268.
The result for C7G G40C reads 0; that for A8G U37A, 0.147; that for A8U C15U, 0.935.
For A8C C19A, the self-cleavage is 0.0449.
The result for C7U A42G reads 0.415; that for U9C A45U, 0.554.
With A8U C63U, the self-cleavage was determined as 0.862.
The result for A8U C63G reads 0.646; that for C7U G25C, 0.0378; that for C7U A16C, 0.196.
Under A8U G17U stands 0.18; under A8U G17A, 0.665; under A8C G73U, 0.264.
The result for C7U A87C reads 0.968; that for C7U A87U, 0.938.
As for C7G U20A, the self-cleavage amounted to 0.
With C7U C24U, the self-cleavage was 0.261.
Under A8C U23C stands 0.506.
In the case of A8C U79A, the self-cleavage was found to be 0.506.
Under C7U A83U stands 0.0852; under A8G G76A, 1.09.
The result for C7G G73A reads 0.0639.
Under U9A G39C stands 0.178; under U9A G39U, 0.917.
With A8U A51U, the self-cleavage is 0.787.
The result for A8U A51G reads 0.767.
Under C7G G10U stands 0.0462; under A8G G80C, 0.172.
Under A8G U27G stands 0.831.
For the variant C7U C18G, the self-cleavage turned out to be 0.0639.
For the variant C7U G31U, the self-cleavage worked out at 0.575.
The result for A8C A16C reads 1.07; that for A8C G39A, 0.151.
Consider A8C G39U, for which the self-cleavage was determined as 0.381.
The result for A8C G39C reads 0.0615; that for A8C C32G, 0.185.
Under A8C C32U stands 0.538; under C7U G67A, 0.904; under C7U G67U, 0.684.
Under A8G C75A stands 0.0692; under U9A A43U, 0.675.
Turning to U9A A43G, the self-cleavage stood at 0.712.
The result for U9A C19U reads 0.113; that for U9A C19G, 0.0665; that for A8G C32A, 0.0852.
Under A8C C44U stands 0.199; under A8U G81U, 0.175.
Turning to A8U G52C, the self-cleavage is 0.779.
C7U U27G: the self-cleavage stood at 0.431.
The result for C7U G34C reads 0.193; that for A8G C18G, 0; that for A8U G35C, 0.0639.
The result for C7U C75G reads 0.0852.
The result for C7U C75A reads 0.177; that for U9A G81C, 0.35; that for A8U U9G, 0.997.
With U9A C15A, the self-cleavage was determined as 0.677.
The result for A8U U65G reads 0.748; that for A8U U65A, 0.617.
